Data: PMC5059719, “Tetrameric structure of the restriction DNA glycosylase R.PabI in complex with nonspecific double-stranded DNA” (Scientific Reports, 2016)

Columns and labels:
[1] = target: R.PabI Y68F R70D mutant, residues 8-226 (Pyrococcus abyssi) (UniProt Q9V2B6)
[2] = target: the molecule itself; assay: cell-based or functional assay
[3] = target: R.PabI Y68F R70D D71R mutant, residues 8-226 (Pyrococcus abyssi) (UniProt Q9V2B6)
[4] = target: the molecule itself; assay: crystal structure; R.PabI R32A E63A dimer co-crystallised with 20 bp blunt-ended nonspecific dsDNA (dsDNA:dimer 1:2) in 10 mM MES pH 6.0, 100 mM NaCl; sitting drop, 20 °C; one dimer in the asymmetric unit, tetramer = two dimers related by the crystallographic two-fold axis, sandwiching the dsDNA

B1: R.PabI Y68F R70D mutant, residues 8-226 (enzyme)
chain: EASVSFENGKIVVRLPITRPTSKIRVKKIENGVGIPVSTRKKSFPSDENLRDYYIEWQISFADDGKYDYELSRMVRLAHEHGILTYNDIYELLKFADDVKSYLEDKGIRRESTNEELYGFNIYEDVYPVAKKELPSGEFIGIVLKHKQRAVGYQSMVYVCIPLTNVEPSLAGRVARRNEVVKYEVPVDLMKELLKAFIIASETHKNDIVKFLRSIIGTS
- DNA glycosylase activity relative to the Y68F control, 24 bp dsDNA substrate [1]: 127%
- DNA glycosylase activity relative to the Y68F control, 500 bp dsDNA substrate [1]: 76%
- DNA glycosylase activity relative to the Y68F control, 3000 bp dsDNA substrate [1]: 19%

B2: R.PabI Y68F D71R mutant, residues 8-226 (enzyme, Pyrococcus abyssi, UniProt Q9V2B6 8-226, looked up)
chain: EASVSFENGKIVVRLPITRPTSKIRVKKIENGVGIPVSTRKKSFPSDENLRDYYIEWQISFARRGKYDYELSRMVRLAHEHGILTYNDIYELLKFADDVKSYLEDKGIRRESTNEELYGFNIYEDVYPVAKKELPSGEFIGIVLKHKQRAVGYQSMVYVCIPLTNVEPSLAGRVARRNEVVKYEVPVDLMKELLKAFIIASETHKNDIVKFLRSIIGTS
- DNA glycosylase activity relative to the Y68F control, 24 bp dsDNA substrate [2]: 74%
- DNA glycosylase activity relative to the Y68F control, 500 bp dsDNA substrate [2]: 34%
- DNA glycosylase activity relative to the Y68F control, 3000 bp dsDNA substrate [2]: 19%

B3: R.PabI Y68F R70D D71R mutant, residues 8-226 (enzyme)
chain: EASVSFENGKIVVRLPITRPTSKIRVKKIENGVGIPVSTRKKSFPSDENLRDYYIEWQISFADRGKYDYELSRMVRLAHEHGILTYNDIYELLKFADDVKSYLEDKGIRRESTNEELYGFNIYEDVYPVAKKELPSGEFIGIVLKHKQRAVGYQSMVYVCIPLTNVEPSLAGRVARRNEVVKYEVPVDLMKELLKAFIIASETHKNDIVKFLRSIIGTS
- DNA glycosylase activity relative to the Y68F control, 24 bp dsDNA substrate [3]: 105%
- DNA glycosylase activity relative to the Y68F control, 500 bp dsDNA substrate [3]: 71%
- DNA glycosylase activity relative to the Y68F control, 3000 bp dsDNA substrate [3]: 40%

B4: R.PabI R32A E63A double mutant, residues 8-226 (enzyme, Pyrococcus abyssi, UniProt Q9V2B6 8-226, looked up)
chain: EASVSFENGKIVVRLPITRPTSKIAVKKIENGVGIPVSTRKKSFPSDENLRDYYIAWQISYARDGKYDYELSRMVRLAHEHGILTYNDIYELLKFADDVKSYLEDKGIRRESTNEELYGFNIYEDVYPVAKKELPSGEFIGIVLKHKQRAVGYQSMVYVCIPLTNVEPSLAGRVARRNEVVKYEVPVDLMKELLKAFIIASETHKNDIVKFLRSIIGTS
notes: R.PabI, type II restriction enzyme (restriction DNA glycosylase) of Pyrococcus abyssi, residues 8-226, with R32A and E63A; Cloned into the NdeI-BamHI site of pET26b; also called protomers A and B; source: E. coli Rosetta(DE3)pLysS, purified (heat treatment, heparin column, MonoS)
- stoichiometry N [4]: 2
